From article PMC2671563 (PLoS Biology, 2009)

What was measured:
mouse S100A9 (mouse) = mouse S100A9 (mouse) (UniProt P31725); experiment: SPR; competition: 100 nM mouse S100A9 injected over amine-coupled mLPS-Trap with soluble mLPS-Trap (100, 200, 400 nM) as competitor
[1] = molecular target: T1, human S100A9 binding to human TLR4/MD2 (Homo sapiens, UniProt P06702); experiment: SPR: inhibition of human S100A9 binding to immobilised human TLR4/MD2; details: for inhibition of hS100A9 binding to immobilised hTLR4/MD2: 100 nM hS100A9
T1 construct: purchased R&D Systems (TLR4/MD-2 complex); S100A9 made in house
T1 sequence (P06702 1-114): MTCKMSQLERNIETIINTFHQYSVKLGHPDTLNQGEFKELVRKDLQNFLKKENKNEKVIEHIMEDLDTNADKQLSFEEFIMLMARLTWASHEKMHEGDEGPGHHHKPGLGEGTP
Method: (§1) The SPR analysis was carried out with the Biacore 3000 system (GE Healthcare). Sensor chips, amine coupling kit, immobilization and running buffers, and regeneration solutions were obtained from GE Healthcare. Working solutions of all reagents used for Biacore analysis were prepared in 0.01 M Hepes, 0.15 M NaCl (pH 7.4) containing 0.005% v/v Surfactant P-20 (HBS-P; GE Healthcare) by buffer exchange on Fast Protein Desalting Micro-Spin Columns from Pierce. ABR-215757 was immobilised onto a CM5 chip through an amino-linker (ABR-224649). […] Activity of ligands after immobilisation was tested by injecting specific antibodies (unpublished data). In some experiments, S100A9 was immobilized either by random amine coupling or with a known orientation (i.e., by sulhydryl group conjugation to the only cysteine in S100A9 at position 3).
(§2) Binding to the various surfaces was performed by injecting the analyte at a flow rate of 30 μl/min in a physiological buffer (HBS-P) containing 1 mM Ca^2+ and 10 μM Zn^2+ as proposed for S100A8/9 by Robinson et al.. A typical analysis cycle consists of: (1) pumping running buffer for 1 min to obtain a stable baseline; (2) injection of sample for an appropriate period of time (association); (3) pumping running buffer for 2.5 min (dissociation); (4) injection of a short pulse (30 s) of 15 μl 10 mM glycine-HCl (pH 2.0) (regeneration); and (5) pumping running buffer for 2 min (stabilisation after regeneration) at a flow rate of 30 μl/min. […] In one experiment, S100A9 was injected into a buffer with a fixed Ca^2+ concentration (1 mM) and Zn^2+ in the range 0–50 μM. In a second experiment, Ca^2+ was varied from 0–2 mM at a fixed Zn^2+ concentration (10 μM). In subsequent analyses, regeneration was carried out under more mild conditions, i.e., by injecting 30 μl of HBS-P containing 3 mM EDTA (HBS-EP; GE Healthcare) for 60 s, to prolong the lifespan of the chip.
(§3) Compounds were also injected over the immobilised surfaces in the absence of S100A9 to exclude, or make possible correction for, any direct binding of compound to the surface.
(§4) Evaluation was carried out using BIAevaluation Software version 3.2 (GE Healthcare). The response at steady-state was obtained by fit of sensorgrams to standard binding models, where appropriate, or calculated as responses at late association or early dissociation phase using the Steady state affinity function in BIAevaluation. Affinity was determined from kinetic analysis (on- and off-rates) or as the apparent affinity after plotting responses versus concentration of analyte in a saturation curve. In the inhibition assay format, the competitor concentration yielding 50% inhibition (IC50) was calculated by fitting data to a one-site competition model in GraphPad Prism.

hS100A9 = molecular target: T2, hS100A9 (Homo sapiens, UniProt P06702); experiment: SPR: analytes injected over immobilised hS100A9; type: binding
T2 construct: made in house; host or cells: Escherichia coli (or purified from granulocytes)
T2 sequence (P06702 1-114): T1 sequence (P06702 1-114)
Method: as §1
(B) Left: 100 nM TLR4/MD2 or MD2 injected over amino-coupled hS100A9. […] Fab 43/8 was injected at 50–200 nM to verify activity of immobilized hS100A9 (right). […] (482 KB PDF) Click here for additional data file.

human S100A9 = molecular target: T3, human S100A9 (Homo sapiens, UniProt P06702); experiment: SPR: human S100A9 binding to immobilised ABR-224649 (Q compound), direct binding and displacement; details: injected together with S100A9
T3 construct: made in house; host or cells: Escherichia coli (or purified from granulocytes)
T3 sequence (P06702 1-114): T1 sequence (P06702 1-114)
Method: as §1, §2, §3, §4

[2] = molecular target: T4, human S100A9 binding to human RAGE (Homo sapiens, UniProt P06702); experiment: SPR: inhibition of human S100A9 binding to immobilised human RAGE; details: injected together with S100A9
T4 construct: purchased R&D Systems (RAGE/Fc); S100A9 made in house
T4 sequence (P06702 1-114): T1 sequence (P06702 1-114)
Method: as §1, §2, §3, §4

mouse RAGE/Fc = molecular target: T5, mouse RAGE/Fc (mouse, UniProt Q62151-1 23-340); experiment: SPR; 50 and 100 nM mouse S100A9, or 100 nM mouse S100A8/A9, injected (3 min at 30 ul/min) over mouse RAGE/Fc or mLPS-Trap coupled to the sensor chip; details: both partners purified
T5 construct: RAGE, mouse; also called mRAGE; mRAGE/hFc; source: bought: R&D Systems (carrier-free recombinant)

human TLR4/MD-2 complex [3] = molecular target: T6, human TLR4/MD-2 complex (human, UniProt O00206 24-631; Q9Y6Y9 19-160); experiment: SPR; 100 nM TLR4/MD2 or MD2 injected over amine-coupled hS100A9 (~5,000 RU); fit to a 1:1 model with mass transfer; details: both partners purified
T6 construct: Toll-like receptor 4, human; MD-2, human; Soluble recombinant complex; also called hTLR4/MD-2; hTLR4/MD2; source: bought: R&D Systems (carrier-free recombinant)

[4] = molecular target: T7, recombinant human RAGE/Fc (human, UniProt Q15109 23-342); experiment: SPR; S100 proteins injected (100 nM, or a range of concentrations; 30 ul/min) over human RAGE/Fc immobilised by amine coupling (~3,000 RU); HBS-P pH 7.4 with 1 mM Ca2+ and 10 uM Zn2+; fit to a 1:1 model with mass transfer; half-maximal binding from responses at late association (apparent); details: both partners purified
T7 construct: RAGE (receptor for advanced glycation end products), human; human IgG1 Fc was used as the control for the Fc part; also called hRAGE; rhRAGE/Fc; source: bought: R&D Systems (carrier-free recombinant)

human TLR4/MD-2 complex [5] = molecular target: T6, human TLR4/MD-2 complex; experiment: SPR; S100 proteins injected (100 nM, or a range of concentrations; 30 ul/min) over human TLR4/MD2 immobilised by amine coupling (~3,000 RU); HBS-P pH 7.4 with 1 mM Ca2+ and 10 uM Zn2+; fit to a 1:1 model with mass transfer; half-maximal binding from responses at late association (apparent); details: both partners purified

T6 sequence (O00206 24-631, chain 1 of 2): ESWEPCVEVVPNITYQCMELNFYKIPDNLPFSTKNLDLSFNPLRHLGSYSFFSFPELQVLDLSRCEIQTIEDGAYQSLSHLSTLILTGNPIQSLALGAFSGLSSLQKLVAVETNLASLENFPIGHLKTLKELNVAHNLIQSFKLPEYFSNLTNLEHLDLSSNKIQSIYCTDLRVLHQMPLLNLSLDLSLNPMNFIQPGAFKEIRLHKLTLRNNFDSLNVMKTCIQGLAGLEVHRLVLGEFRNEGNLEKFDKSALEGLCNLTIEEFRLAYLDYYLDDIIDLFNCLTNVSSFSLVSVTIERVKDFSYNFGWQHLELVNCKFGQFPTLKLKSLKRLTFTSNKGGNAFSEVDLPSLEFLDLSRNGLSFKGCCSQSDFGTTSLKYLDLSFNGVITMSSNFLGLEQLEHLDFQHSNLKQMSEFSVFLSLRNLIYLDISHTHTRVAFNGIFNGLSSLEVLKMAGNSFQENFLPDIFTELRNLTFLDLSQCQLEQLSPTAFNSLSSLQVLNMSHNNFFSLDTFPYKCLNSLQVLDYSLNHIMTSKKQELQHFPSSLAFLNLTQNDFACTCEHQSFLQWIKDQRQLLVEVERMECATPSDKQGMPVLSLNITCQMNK
T6 sequence (Q9Y6Y9 19-160, chain 2 of 2): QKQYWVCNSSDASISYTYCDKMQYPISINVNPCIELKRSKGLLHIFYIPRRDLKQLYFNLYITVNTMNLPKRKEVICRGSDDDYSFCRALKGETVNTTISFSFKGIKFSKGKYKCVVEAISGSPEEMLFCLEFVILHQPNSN
T7 sequence (Q15109 23-342): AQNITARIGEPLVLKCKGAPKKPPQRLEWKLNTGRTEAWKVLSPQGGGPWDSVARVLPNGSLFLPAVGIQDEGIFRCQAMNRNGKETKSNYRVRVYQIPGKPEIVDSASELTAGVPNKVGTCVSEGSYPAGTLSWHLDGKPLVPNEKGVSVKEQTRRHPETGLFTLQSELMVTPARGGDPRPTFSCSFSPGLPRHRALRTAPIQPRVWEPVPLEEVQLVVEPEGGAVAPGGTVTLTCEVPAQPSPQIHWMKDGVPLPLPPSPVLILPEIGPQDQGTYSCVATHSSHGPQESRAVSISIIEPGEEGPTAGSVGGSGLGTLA
T5 sequence (Q62151 23-340): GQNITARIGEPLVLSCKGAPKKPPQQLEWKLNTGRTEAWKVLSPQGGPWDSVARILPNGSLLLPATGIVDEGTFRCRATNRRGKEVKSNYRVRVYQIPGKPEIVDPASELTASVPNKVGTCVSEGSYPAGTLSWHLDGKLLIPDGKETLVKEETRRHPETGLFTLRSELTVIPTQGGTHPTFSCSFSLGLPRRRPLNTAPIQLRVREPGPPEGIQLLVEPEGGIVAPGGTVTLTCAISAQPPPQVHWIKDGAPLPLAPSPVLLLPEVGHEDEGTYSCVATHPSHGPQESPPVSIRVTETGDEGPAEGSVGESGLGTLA

A percent inhibition of mS100A9 binding to immobilised mLPS-Trap at 100 nM competitor (mouse S100A9 (mouse)) of 22%, a percent inhibition of mS100A9 binding to immobilised mLPS-Trap at 200 nM competitor (mouse S100A9 (mouse)) of 51% and a percent inhibition of mS100A9 binding to immobilised mLPS-Trap at 400 nM competitor (mouse S100A9 (mouse)) of 70% were found for “mouse TLR4/MD2 fusion protein (mLPS-Trap)” in this work.

rhMD-2: recombinant human MD-2 was tested, and the “displacement of S100A9 binding to immobilised hTLR4/MD2” value ([1]; 200 and 400 nM, unpublished data) was “No displacement” and the “binding to immobilised S100A9” value (hS100A9) was “did not”.

“sTLR4/MD2: recombinant human TLR4/MD-2 complex in solution” was tested, and the “inhibition of S100A9 interaction with immobilised Q compound by competitor in solution” value (human S100A9) was “inhibit”, the “inhibition of S100A9 interaction with immobilised RAGE by competitor in solution” value [2] was “inhibit” and the “inhibition of hS100A9 binding to immobilised hTLR4/MD2” value ([1]; competitor 200 nM) was 55%. For the same molecule, the “inhibition of hS100A9 binding to immobilised hTLR4/MD2” value ([1]; competitor 400 nM) was 78%, the “blocking of S100A9 interaction with immobilised TLR4 by competitor in solution” value ([1]; injected together with S100A9) was “efficiently block” and the Kd (hS100A9; 100 nM analyte, 1:1 model with mass transfer, read-out: KD, binding to immobilised hS100A9) was 9.2 nM.

B1: mouse S100A9 (natural protein, UniProt P31725 1-113, looked up)
chain: MANKAPSQMERSITTIIDTFHQYSRKEGHPDTLSKKEFRQMVEAQLATFMKKEKRNEALINDIMEDLDTNQDNQLSFEECMMLMAKLIFACHEKLHENNPRGHGHSHGKGCGK
notes: S100A9, mouse; called homodimeric; also called mS100A9; murine S100A9; source: either produced recombinantly in Escherichia coli or purified from granulocytes
B1: binds (mouse RAGE/Fc).

B2: mouse S100A8/A9 heterodimer (complex)
chain 1: MPSELEKALSNLIDVYHNYSNIQGNHHALYKNDFKKMVTTECPQFVQNINIENLFRELDINSDNAINFEEFLAMVIKVGVASHKDSHKE
chain 2: B1 chain
notes: S100A8, mouse; S100A9, mouse; also called mS100A8/A9; murine S100A8/A9; source: either produced recombinantly in Escherichia coli or purified from granulocytes
B2: binds (mouse RAGE/Fc).

B3: human S100A9 (natural protein, UniProt P06702 1-114, looked up)
chain: T1 sequence (P06702 1-114)
notes: S100A9, human; called homodimeric; also called hS100A9; homodimeric S100A9; source: either produced recombinantly in Escherichia coli or purified from granulocytes
A Kd (human TLR4/MD-2 complex [3]) of 9.2 nM, a Kd [4] of 38 nM and a Kd (human TLR4/MD-2 complex [5]) of 2.1 nM were found for B3 in this work.

B4: human S100A8/A9 heterodimer (complex)
chain 1: MLTELEKALNSIIDVYHKYSLIKGNFHAVYRDDLKKLLETECPQYIRKKGADVWFKELDINTDGAVNFQEFLILVIKMGVAAHKKSHEESHKE
chain 2: T1 sequence (P06702 1-114)
notes: S100A8, human; S100A9, human; also called hS100A8/9; S100A8/A9 complex; source: either produced recombinantly in Escherichia coli or purified from granulocytes
A Kd [4] of 9.4 nM and a Kd (human TLR4/MD-2 complex [5]) of 3.8 nM were found for B4 in this work.
